Square brackets hold non-standard residues; d marks the D form. Ends that are not written are not given here. 3Pal = N[C@@H](Cc1cccnc1)C(=O)O; 4Pal = N[C@@H](Cc1ccncc1)C(=O)O; Aib = CC(C)(N)C(=O)O
Legend:
Experiment in all cases: cell-based or functional assay
[1] = target: glucagon receptor (co-transfected in HEK293 cells with a CRE-luciferase reporter)
human glucagon receptor = human glucagon receptor (human, UniProt P47871 26-477)
human GLP-1 receptor = human GLP-1 receptor (human, UniProt P43220 24-463)

human glucagon receptor, sequence (P47871 26-477): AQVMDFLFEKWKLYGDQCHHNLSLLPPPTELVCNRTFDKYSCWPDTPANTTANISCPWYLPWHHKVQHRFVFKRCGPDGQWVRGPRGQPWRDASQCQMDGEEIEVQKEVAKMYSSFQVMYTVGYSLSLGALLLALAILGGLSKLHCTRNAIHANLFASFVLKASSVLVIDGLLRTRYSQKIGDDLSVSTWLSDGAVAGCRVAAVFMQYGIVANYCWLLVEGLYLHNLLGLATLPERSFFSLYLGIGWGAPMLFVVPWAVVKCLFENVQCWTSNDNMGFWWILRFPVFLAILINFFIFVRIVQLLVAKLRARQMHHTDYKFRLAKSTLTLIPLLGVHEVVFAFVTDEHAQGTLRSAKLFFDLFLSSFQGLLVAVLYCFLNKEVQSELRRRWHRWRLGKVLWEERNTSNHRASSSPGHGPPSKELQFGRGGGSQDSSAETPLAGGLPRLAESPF

Row | Binder | % bioactivity of GCG [1] | EC50 [nM] (SDV), luciferase-based glucagon receptor cAMP reporter assay [1] | hGcgR EC50 (pM) (human glucagon receptor) | hGLP-1R EC50 (pM) (human GLP-1 receptor)
1 | HSQGTFTSDYSK[4Pal]LD[Aib]RRAQDFVQWLMNT [Glucagon analog 6] | 60% | 0.0339 nM | – | –
2 | HSQGTFTSDXSKYLDXRRAXDFVQWLMNT (3-Pal at position 10; Aib at position 16; dGln at position 20) [Glucagon analog 3-Pal10, Aib16, q20 (SEQ ID NO: 971)] | – | – | 86 pM | > 10000 pM
3 | HSQGTFTSD[3Pal]SKYLD[Aib]RRAQDFVQWLMNT [Glucagon analog 4] | 76% | 0.0268 nM | – | –
4 | HSQGTFTSD[4Pal]SK[4Pal]LD[Aib]RRAQDFVQWLMNT [Glucagon analog 8] | 66% | 0.0309 nM | – | –
5 | HSQGTFTSD[3Pal]SK[3Pal]LD[Aib]RRAQDFVQWLMNT [Glucagon analog 7] | 57% | 0.0359 nM | – | –
6 | HSQGTFTSDYSK[3Pal]LD[Aib]RRAQDFVQWLMNT [Glucagon analog 5] | 54% | 0.0379 nM | – | –
7 | HSQGT[3Pal]TSD[3Pal]SK[3Pal]LD[Aib]RRAQDFVQWLMNT [Glucagon analog 9] | 28% | 0.0714 nM | – | –

Next, values leading:

Row | % bioactivity of GCG [1] | EC50 [nM] (SDV), luciferase-based glucagon receptor cAMP reporter assay [1] | hGcgR EC50 (pM) (human glucagon receptor) | hGLP-1R EC50 (pM) (human GLP-1 receptor) | Binder
8 | 24% | 0.0843 nM | – | – | HSQGT[4Pal]TSD[4Pal]SK[4Pal]LD[Aib]RRAQDFVQWLMNT [Glucagon analog 10]
9 | 1% | 2.33 nM | – | – | HSQGT[3Pal]TSD[3Pal]SK[3Pal]LD[Aib]RRAQD[3Pal]VQWLMNT [Glucagon analog 11]
10 | – | – | 18 pM | > 10000 pM | HSQGTFTSDYSKYLD[Aib]RRA[dQ]DFVQWLMDE [Glucagon analog Aib16, q20, D28, E29 (SEQ ID NO: 981)]
11 | – | – | 33 pM | 7480 pM | HSQGTFTSDYSKYLD[Aib]RRA[dQ]DFVQWLMDT [Glucagon analog Aib16, q20, D28 (SEQ ID NO: 980)]
